Measurements as given in IntAct's records for PubMed 19013157.

B1: Chaperone protein TorD (Escherichia coli (strain K12)), P36662 (parent)
chain: MTTLTAQQIACVYAWLAQLFSRELDDEQLTQIASAQMAEWFSLLKSEPPLTAAVNELENRIATLTVRDDARLELAADFCGLFLMTDKQAALPYASAYKQDEQEIKRLLVEAGMETSGNFNEPADHLAIYLELLSHLHFSLGEGTVPARRIDSLRQKTLTALWQWLPEFVARCRQYDSFGFYAALSQLLLVLVECDHQNR
B2: Trimethylamine-N-oxide reductase 1 (Escherichia coli (strain K12)), P33225 (parent)
chain: MNNNDLFQASRRRFLAQLGGLTVAGMLGPSLLTPRRATAAQAATDAVISKEGILTGSHWGAIRATVKDGRFVAAKPFELDKYPSKMIAGLPDHVHNAARIRYPMVRVDWLRKRHLSDTSQRGDNRFVRVSWDEALDMFYEELERVQKTHGPSALLTASGWQSTGMFHNASGMLAKAIALHGNSVGTGGDYSTGAAQVILPRVVGSMEVYEQQTSWPLVLQNSKTIVLWGSDLLKNQQANWWCPDHDVYEYYAQLKAKVAAGEIEVISIDPVVTSTHEYLGREHVKHIAVNPQTDVPLQLALAHTLYSENLYDKNFLANYCVGFEQFLPYLLGEKDGQPKDAAWAEKLTGIDAETIRGLARQMAANRTQIIAGWCVQRMQHGEQWAWMIVVLAAMLGQIGLPGGGFGFGWHYNGAGTPGRKGVILSGFSGSTSIPPVHDNSDYKGYSSTIPIARFIDAILEPGKVINWNGKSVKLPPLKMCIFAGTNPFHRHQQINRIIEGLRKLETVIAIDNQWTSTCRFADIVLPATTQFERNDLDQYGNHSNRGIIAMKQVVPPQFEARNDFDIFRELCRRFNREEAFTEGLDEMGWLKRIWQEGVQQGKGRGVHLPAFDDFWNNKEYVEFDHPQMFVRHQAFREDPDLEPLGTPSGLIEIYSKTIADMNYDDCQGHPMWFEKIERSHGGPGSQKYPLHLQSVHPDFRLHSQLCESETLRQQYTVAGKEPVFINPQDASARGIRNGDVVRVFNARGQVLAGAVVSDRYAPGVARIHEGAWYDPDKGGEPGALCKYGNPNVLTIDIGTSQLAQATSAHTTLVEIEKYNGTVEQVTAFNGPVEMVAQCEYVPASQVKS
partner: B1 chain

Variants of: B1
Conditions: with tora_ecoli torA

Variant | effect of a mutation on the interaction
L189Q | increasing interaction
Q7L | increasing interaction
F180L | increasing interaction

Variants of: B1
Conditions: with tora_ecoli torA
Remark: another data set of the same source

Variant | effect of a mutation on the interaction
L189Q | decreasing interaction

Variants of: B1
Conditions: with tora_ecoli torA
Remark: another data set of the same source

Variant | effect of a mutation on the interaction
Q186L | increasing interaction

Variants of: B1
Conditions: with tora_ecoli torA
Remark: another data set of the same source

Variant | effect of a mutation on the interaction
F180L | decreasing interaction

Variants of: B2
Conditions: with tord_ecoli torD

Variant | effect of a mutation on the interaction
L32Q | disrupting interaction

Variants of: B2
Conditions: with tord_ecoli torD
Remark: another data set of the same source

Variant | effect of a mutation on the interaction
V23Q | decreasing interaction

Variants of: B2
Conditions: with tord_ecoli torD
Remark: another data set of the same source

Variant | effect of a mutation on the interaction
G28Q | decreasing interaction

Variants of: B2
Conditions: with tord_ecoli torD
Remark: another data set of the same source

Variant | effect of a mutation on the interaction
G19Q | decreasing interaction

Variants of: B2
Conditions: with tord_ecoli torD
Remark: another data set of the same source

Variant | effect of a mutation on the interaction
L31Q | disrupting interaction

Variants of: B2
Conditions: with tord_ecoli torD
Remark: another data set of the same source

Variant | effect of a mutation on the interaction
L31Q | decreasing interaction

Variants of: B2
Conditions: with tord_ecoli torD
Remark: another data set of the same source

Variant | effect of a mutation on the interaction
T22Q | increasing interaction

Variants of: B2
Conditions: with tord_ecoli torD
Remark: another data set of the same source

Variant | effect of a mutation on the interaction
L27Q | disrupting interaction
